This is an account of results in patent US20050142137A1 (CURAGEN, published 2005).

The target in experiment [1] is T1, recombinant human SLPI (Secretory leukocyte protease inhibitor), R&D Systems Cat#260-PI (human, UniProt P03973 25-131, biotinylated in the streptavidin-plate ELISAs and on SRBCs).
T1 construct: Bought protein; also called biotinylated SLPI; B-Cur12
Briefly: limiting antigen ELISA, biotinylated SLPI coated at 50 ng/ml. The procedure:
The limiting antigen analysis is a method that affinity ranks the antigen-specific antibodies in B cell culture supernatants. […] Each plate was washed 5 times with dH₂O, before 46 μl/well of 1% milk in PBS with 0.05% sodium azide was added, followed by 4 μl/well of B cell supernatant. After 22 hours at RT on a shaker, the plates were again washed 5 times with dH₂O. Goat anti-Human (Fc)-HRP at 1 μg/ml, 50 μl/well was added. After 1 hour at RT, the plates were again washed 5 times with dH₂O and 50 μl/well of TMB substrate was added. The reaction was stopped by the addition of 50 μl of 1M phosphoric acid to each well and the plates were read at wavelength 450 nm. 42C1, 43H7, 35F1 and 9G12 were chosen for further evaluation and cloning.
A general note: In an ELISA, binding on a coated surface is turned into a signal by an enzyme label.

Experiment [2] deals with T1, recombinant human SLPI (Secretory …). Briefly: ELISA, B cell supernatant on biotinylated SLPI, rescreen.
The target is the same in experiment [3]. Briefly: ELISA, B cell supernatant on biotinylated SLPI, primary screen. The procedure: Anti-SLPI antibody titers were determined by indirect ELISA. Briefly, biotinylated SLPI (0.5 μg/mL) was coated onto Sigma Streptavidin Clear Polystyrene 96 well ELISA plates for 30 minutes at room temperature (RT). The plates were then washed 4× by hand, then pat dried on paper towels. XenoMouse® animal sera from SLPI immunized, or naïve XenoMouse® animals, were titrated out to 6 wells, the last well left blank, in 1% no fat skim milk/PBS at 1:2 dilutions in duplicate from a 1:500 initial dilution. 50 μl was used for each well. The plates were incubated for 1 hour then washed four times. 50 μl of a goat anti-human IgG Fc-specific HRP-conjugated antibody (0.4 μg/mL) was added to each well and incubated for 1 hour at RT. The plates were washed five times with distilled water (dH₂O). The plates were developed with the addition of TMB for 30 minutes and the ELISA was stopped by the addition of 1 M phosphoric acid. The specific titers of individual XenoMouse® animals were determined from the optical density at 450 nm, Table 2. The titers represent the reciprocal dilution of the serum to either SLPI or streptavidin and therefore the higher the number, the greater the humoral immune response. Lymph nodes were harvested for XenoMax® antibody generation from immunized XenoMouse® animals with specific titers to SLPI versus streptavidin as shown in Table 4.
B cells from the harvested animals were cultured and those secreting SLPI-specific antibodies were isolated as described previously (Babcook et al., 1996 Proc. Natl. Acad. Sci. USA, 93:7843-7848). ELISA, performed as described above, was used to identify primary SLPI-specific wells from fifty plates cultured at 500 or 150 cells/well.

Experiment [4] has as its target T2, SLPI of human tumour cell lines (endogenous; on cells or in conditioned media) (human, UniProt P03973 26-132). Briefly: cell-based or functional assay.
Experiment [5] concerns the target T2, SLPI of human tumour cell lines …. Briefly: flow cytometry, 42C1 at 170 nM on OVCAR-4 cells. The procedure: (§1) FACS analysis of anti-SLPI antibody binding to OVCAR4, OVCAR-5, OVCAR-8, SK-OV-3, A2780, SF294, 786-0 cell lines was done as follows. Suspended cells were washed twice with ice-cold FACS buffer (SOURCE) and incubated with antibody 42C1 (170 nM/FACS buffer) for 1 hr then washed. Cells were incubated with a 1:500 dilution in FACS buffer of […] donkey anti-human IgG (H+L) (Jackson Immunolabs) for 30 minutes. Cells were washed and then fixed with 1% formaldehyde in PBS. Analysis was done using a FACS Calibur™ flow cytometer (Becton Dickinson, Frankin Lakes, N.J.).
(§2) 42C1 antibody bound SLPI on SLPI expressing ovarian cancer cell lines: OVCAR-4 (Geo Mean Ratio 37), OVCAR-5 (Geo Mean Ratio 10), and OVCAR-8 (Geo Mean Ratio 35) as compared to SLPI negative cell line 786-0 (Geo Mean Ratio 3).
A general note: In flow cytometry, cells or beads pass a laser one at a time.

Experiment [6] shares this target. Briefly: flow cytometry, 42C1 at 170 nM on OVCAR-8 cells. The procedure:
as §1, §2

The target is the same in experiment [7]. Briefly: flow cytometry, 42C1 at 170 nM on OVCAR-5 cells. The procedure: as §1, §2

T1 sequence (P03973 25-131): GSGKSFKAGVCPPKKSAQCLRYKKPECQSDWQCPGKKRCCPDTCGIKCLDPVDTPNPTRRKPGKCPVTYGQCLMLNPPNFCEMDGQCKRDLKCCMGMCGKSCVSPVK
T2 sequence (P03973 26-132 limits assumed): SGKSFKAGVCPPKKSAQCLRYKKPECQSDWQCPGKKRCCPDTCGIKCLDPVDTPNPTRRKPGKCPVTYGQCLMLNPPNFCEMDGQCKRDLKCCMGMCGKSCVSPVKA

B1: 43H7 (antibody, human IgG2, V domains shown)
VH: QVQLVESGGGVVQPGRSLRLSCAASGFTFSTYGMHWVRQAPGKGLEWVTFIWYDGRNKYYADSVKGRFTVSRDNSKNTLYLQMNSLRAEDTAVYYCARGDDYGDYHPHYYYYGLDVWGQGTTVTVSS
VL: DIVMTQTPLSLSVTPGQPASISCKSSQSLLDSDGKTYLYWYLQKPGQPPQLLIYEVSNRFSGVPDRFSGSGSGTDFTLKISRVEAEDVAYYYCMQSIQLPWTFGQGTKVEIK
notes: Fully human, XenoMouse XMG2; also called #11; Cur12.1 PL43 H7
Take B1: the OD in experiment [1] amounted to 1.19 OD450. In addition, the “2* OD” value in experiment [2] was 2.28 OD450. The “1* OD” value in experiment [3] amounted to 3.37 OD450.

B2: 9G12 (antibody, human IgG2, V domains shown)
VH: QVQLVESGGGVVQPGRSLRLSCAASGFTFSGYGMHWVRQAPGKGLEWVAFIWYNGNDNYYTDSVKGRFTISRDNSKNTLYLQMNSLRAEDTAVYYCARGDDYGDYHPHYYYYGMDVWGQGTTVTVSS
VL: DIVMTQTPLSLSVTPGQPASISCKSSQSLLDSDGKTYLYWYLQKPGQPPQLLIYEVSNRFSGVPDRFSGSGSGTDFTLKISRVEAEDIGVYYCLQSIQLPWTFGQGTKVEIK
notes: Fully human, XenoMouse XMG2; also called #36; Cur12.1 PL09 G12
Turning to B2, the OD in experiment [1] came out at 0.6 OD450. Moreover, in experiment [2], the “2* OD” value worked out at 1.97 OD450. The “1* OD” value in experiment [3] was determined as 2 OD450.

B3: 35F1 (antibody, human IgG2, V domains shown)
VH: QVQLQESGPGLVKPSQTLSLTCTVSGGSIKSGDYYWSWVRQLPGKGLEWIGYIYYSGSTYYNPSLKSRVTISIDTSKNQFSLKLSSVTAADTAVYYCAREGSYYDSGGFDYWGQGTLVTVSS
VL: not shown
notes: Fully human, XenoMouse XMG2; also called #50; Cur12.1 PL35 F1
Turning to B3, in experiment [1], the OD amounted to 0.17 OD450. Moreover, in experiment [4], the “IC50 of growth inhibition of IGROV-1 cells, clonogenic assay” value came out at 163 nM and the “IC50 of growth inhibition of SW480 cells, clonogenic assay” value came out at 85 nM. Further, the “2* OD” value in experiment [2] turned out to be 0.41 OD450. The “1* OD” value in experiment [3] stood at 0.425 OD450.

B4: 42C1 (antibody, human IgG2, V domains shown)
VH: QVQLQESGPGLVKPSQTLSLTCTVSGVSISSGGYYWSWIRQHPGKGLEWIGYIYYSGSTYYNPSLKSRVTISVDTSKNQFSLKLSSVTAADTAVFYCAREGEYYDEGGFDYWGQGTLVTVSS
VL: not shown
notes: Fully human, XenoMouse XMG2; also called #24; Cur12.1 PL42 C1
As to B4, the OD in experiment [1] came out at 3.01 OD450. In addition, the “Geo Mean Ratio” value in experiment [5] came out at 37; in experiment [6], 35; in experiment [7], 10. The “IC50 of growth inhibition of IGROV-1 cells, clonogenic assay” value in experiment [4] was determined as 121 nM. Moreover, the “IC50 of growth inhibition of SW480 cells, clonogenic assay” value in experiment [4] is 85 nM. In experiment [2], the “2* OD” value is 2.25 OD450. Besides, the “1* OD” value in experiment [3] is 3.23 OD450.
